As usually defined, the Km is the concentration of substrate that gives half-maximal velocity.

Drawing on ChEMBL document CHEMBL4304758, “Development of Peptide-Based Sirtuin Defatty-Acylase Inhibitors Identified by the Fluorescence Probe, SFP3, That Can Efficiently Measure Defatty-Acylase Activity of Sirtuin” (J Med Chem, 2019), this text covers Km for one protein.

Compound in series [1]: CCCCCCCCCCCCCC(=S)NCCCC[C@H](NC(=O)[C@@H](NC(=O)[C@H](CCCNC(=N)N)NC(C)=O)[C@@H](C)CC)C(=O)N[C@@H](CCCNC(=N)N)C(=O)N[C@@H](Cc1ccc(O)cc1)C(N)=O
The experiment in a line: Mixed-inhibition of recombinant human SIRT2 defatty-acylase activity assessed as substrate Km at 30 nM using varying levels of SFP3 as substrate measured at 1 min interval for 30 mins in presence of NAD+ by Michaelis-Menten plot analysis (reference value: 0.55 +/- 0.04 uM).

Compound in series [2]: CC[C@H](C)[C@H](NC(=O)[C@H](CCCNC(=N)N)NC(C)=O)C(=O)N[C@@H](CCCCNC(=O)Cc1ccc(/N=N/c2ccc(O)cc2)cc1)C(=O)N[C@@H](CCCNC(=N)N)C(=O)N[C@@H](Cc1ccc(O)cc1)C(N)=O
Described as above.

Compound in series [3]: CCCCCCCCCCCCCC(=S)NCCCC[C@H](NC(=O)[C@@H](NC(=O)[C@H](CCCNC(=N)N)NC(C)=O)[C@@H](C)CC)C(=O)N[C@@H](CCCNC(=N)N)C(=O)N[C@@H](Cc1ccc(O)cc1)C(N)=O
The experiment in a line: Mixed-inhibition of recombinant human SIRT2 defatty-acylase activity assessed as substrate Km at 20 nM using varying levels of SFP3 as substrate measured at 1 min interval for 30 mins in presence of NAD+ by Michaelis-Menten plot analysis (reference value: 0.55 +/- 0.04 uM).

Compound in series [4]: CC[C@H](C)[C@H](NC(=O)[C@H](CCCNC(=N)N)NC(C)=O)C(=O)N[C@@H](CCCCNC(=O)Cc1ccc(/N=N/c2ccc(O)cc2)cc1)C(=O)N[C@@H](CCCNC(=N)N)C(=O)N[C@@H](Cc1ccc(O)cc1)C(N)=O
The series is described as above.

Compound in series [5]: CCCCCCCCCCCCCC(=S)NCCCC[C@H](NC(=O)[C@@H](NC(=O)[C@H](CCCNC(=N)N)NC(C)=O)[C@@H](C)CC)C(=O)N[C@@H](CCCNC(=N)N)C(=O)N[C@@H](Cc1ccc(O)cc1)C(N)=O
The experiment in a line: Mixed-inhibition of recombinant human SIRT2 defatty-acylase activity assessed as substrate Km at 15 nM using varying levels of SFP3 as substrate measured at 1 min interval for 30 mins in presence of NAD+ by Michaelis-Menten plot analysis (reference value: 0.55 +/- 0.04 uM).

Compound in series [6]: CC[C@H](C)[C@H](NC(=O)[C@H](CCCNC(=N)N)NC(C)=O)C(=O)N[C@@H](CCCCNC(=O)Cc1ccc(/N=N/c2ccc(O)cc2)cc1)C(=O)N[C@@H](CCCNC(=N)N)C(=O)N[C@@H](Cc1ccc(O)cc1)C(N)=O
The description is as above.

B1: NAD-dependent protein deacetylase sirtuin-2 (Homo sapiens), Q8IXJ6 (protein)
chain: MAEPDPSHPLETQAGKVQEAQDSDSDSEGGAAGGEADMDFLRNLFSQTLSLGSQKERLLDELTLEGVARYMQSERCRRVICLVGAGISTSAGIPDFRSPSTGLYDNLEKYHLPYPEAIFEISYFKKHPEPFFALAKELYPGQFKPTICHYFMRLLKDKGLLLRCYTQNIDTLERIAGLEQEDLVEAHGTFYTSHCVSASCRHEYPLSWMKEKIFSEVTPKCEDCQSLVKPDIVFFGESLPARFFSCMQSDFLKVDLLLVMGTSLQVQPFASLISKAPLSTPRLLINKEKAGQSDPFLGMIMGLGGGMDFDSKKAYRDVAWLGECDQGCLALAELLGWKKELEDLVRREHASIDAQSGAGVPNPSTSASPKKSPPPAKDEARTTEREKPQ
B1: the Km in series [1] is 1.1 µM; in series [2] it was 2.5 µM; in series [3], 0.48 µM; in series [4], 1.1 µM; in series [5], 0.47 µM; in series [6] it was 0.76 µM.
